Measurements from FireProtDB (doi:10.1021/bi992119u).

Conditions: Pseudomonas putida; pH 7; 25 °C; Urea; CD; Sodium phosphate 25 mM; reversible: yes; whole UniProt chain shown

B1: Steroid Delta-isomerase wild type, P07445 (protein)
chain: MNLPTAQEVQGLMARYIELVDVGDIEAIVQMYADDATVEDPFGQPPIHGREQIAAFYRQGLGGGKVRACLTGPVRASHNGCGAMPFRVEMVWNGQPCALDVIDVMRFDEHGRIQTMQAYWSEVNLSVREPQ
Question: Which denaturant m value does the source give for B1 here?
Answer: The denaturant m value was 3.39 kcal/mol/M.

Question: And the “denaturant midpoint (higher = more stable)” value?
Answer: The value was 5.22 M.

Question: And the unfolding free energy?
Answer: The unfolding free energy was 102 kJ/mol.
